Measured values: article PMC3064162
pKd: −log10 of the molar value.

Target: human C3b (human)
Experiment: SPR

pKd: < 4.46
Substance: (R78G)FH1–4^V62 (from UniProt P08603 19-263) (domain or fragment)
